Test results reported in US20200277374A1 (Alector, published 2020).

Experiments:
[1] = target: human Siglec-7 expressed on human cells (primary monocytes, dendritic cells, macrophages, NK cells, microglia, U937 cells, human cells of humanized mice) (human) (UniProt Q9Y286); assay: FACS, human primary macrophages; isotype control (background)
[2] = target: human Siglec-7 expressed on human cells (primary monocytes, dendritic cells, macrophages, NK cells, microglia, U937 cells, human cells of humanized mice) (human) (UniProt Q9Y286); assay: FACS, human primary monocytes; isotype control (background)
[3] = target: human Siglec-7 expressed on human cells (primary monocytes, dendritic cells, macrophages, NK cells, microglia, U937 cells, human cells of humanized mice) (human) (UniProt Q9Y286); assay: FACS, human primary dendritic cells; isotype control (background)
[4] = target: human Siglec-7 expressed on human cells (primary monocytes, dendritic cells, macrophages, NK cells, microglia, U937 cells, human cells of humanized mice) (human) (UniProt Q9Y286); assay: cell-based or functional assay
[5] = target: T1, Siglec-7-Fc (plate immobilized) (human, UniProt Q9Y286 19-357, limits assumed); assay: RBC solid adhesion assay, plate-coated Siglec-7-Fc; isotype control
T1 construct: also called Siglec-7-Fc protein; immobilized Siglec-7; not shown: Fc part

W74A = target: T2, W74A (human, UniProt Q9Y286); assay: flow cytometry on HEK-293T cells expressing the mutant; mean % of wild-type signal (range of duplicates)
T2 construct: clone of the siglec-7 mutation library; also called Siglec-7 W74A
Protocol: (§1) Shotgun mutagenesis epitope mapping of anti-siglec-7 antibodies was performed using an alanine-scanning library for the siglec-7 protein. […] Each of residues 19 to 353 was mutated, representing the siglec-7 extracellular domain, most to alanine, while alanine codons were mutated to serine. In total, 335 siglec-7 mutant expression constructs were generated, sequences confirmed, and arrayed into a 384-well plate, one mutant per well.
(§2) Cells were then incubated with MAbs diluted in 10% o normal goat serum (NGS) (Sigma-Aldrich, St. Louis, Mo.). Prior to library screening, primary MAb concentrations were determined using an independent immunofluorescence titration curve against cells expressing wild-type siglec-7 to ensure that signals were within the linear range of detection. MAbs were detected using 3.75 μg/ml AlexaFluor488-conjugated secondary antibody (Jackson immunoResearch Laboratories, Westgrove, Pa.) in 10% NGS. Cells were washed twice with PBS−/− and resuspended in Cellstripper (Cellgro, Manassas, Va.) with 0.1% BSA (Sigma-Aldrich, St. Louis, Mo.). Mean cellular fluorescence was detected using the Intellicyt high throughput flow cytometer (HTFC, Intellicyt, Albuquerque, N. Mex.). MAb reactivities against each mutant clone were calculated relative to wild-type siglec-7 protein reactivity by subtracting the signal from mock-transfected controls, and normalizing to the signal from wild-type siglec-7-transfected controls.

T103A = target: T3, T103A (human, UniProt Q9Y286); assay: as above
T3 construct: clone of the siglec-7 mutation library; also called Siglec-7 T103A
Protocol: as §1, §2

F48A = target: T4, F48A (human, UniProt Q9Y286); assay: as above
T4 construct: clone of the siglec-7 mutation library; also called Siglec-7 F48A
Protocol: as §1, §2

S47A = target: T5, S47A (human, UniProt Q9Y286); assay: as above
T5 construct: clone of the siglec-7 mutation library; also called Siglec-7 S47A
Protocol: as §1, §2

T107A = target: T6, T107A (human, UniProt Q9Y286); assay: as above
T6 construct: clone of the siglec-7 mutation library; also called Siglec-7 T107A
Protocol: as §1, §2

R124A = target: T7, R124A (human, UniProt Q9Y286); assay: as above
T7 construct: clone of the siglec-7 mutation library; also called Siglec-7 R124A
Protocol: as §1, §2

I72A = target: T8, I72A (human, UniProt Q9Y286); assay: as above
T8 construct: clone of the siglec-7 mutation library; also called Siglec-7 I72A
Protocol: as §1, §2

K104A = target: T9, K104A (human, UniProt Q9Y286); assay: as above
T9 construct: clone of the siglec-7 mutation library; also called Siglec-7 K104A
Protocol: as §1, §2

R45A = target: T10, R45A (human, UniProt Q9Y286); assay: as above
T10 construct: clone of the siglec-7 mutation library; also called Siglec-7 R45A
Protocol: as §1, §2

M30A = target: T11, M30A (human, UniProt Q9Y286); assay: as above
T11 construct: clone of the siglec-7 mutation library; also called Siglec-7 M30A
Protocol: as §1, §2

M185A = target: T12, M185A (human, UniProt Q9Y286); assay: as above
T12 construct: clone of the siglec-7 mutation library; also called Siglec-7 M185A
Protocol: as §1, §2

N81A = target: T13, N81A (human, UniProt Q9Y286); assay: as above
T13 construct: clone of the siglec-7 mutation library; also called Siglec-7 N81A
Protocol: as §1, §2

Y50A = target: T14, Y50A (human, UniProt Q9Y286); assay: as above
T14 construct: clone of the siglec-7 mutation library; also called Siglec-7 Y50A
Protocol: as §1, §2

V44A = target: T15, V44A (human, UniProt Q9Y286); assay: as above
T15 construct: clone of the siglec-7 mutation library; also called Siglec-7 V44A
Protocol: as §1, §2

[6] = target: human Siglec-7 expressed on human cells (primary monocytes, dendritic cells, macrophages, NK cells, microglia, U937 cells, human cells of humanized mice) (human) (UniProt Q9Y286); assay: FACS, human primary monocytes, 10 ug/ml mAb
[7] = target: human Siglec-7 expressed on human cells (primary monocytes, dendritic cells, macrophages, NK cells, microglia, U937 cells, human cells of humanized mice) (human) (UniProt Q9Y286); assay: FACS, human primary macrophages, 10 ug/ml mAb
[8] = target: T1, Siglec-7-Fc (plate immobilized); assay: RBC solid adhesion assay, plate-coated Siglec-7-Fc, antibody 0.5 or 1.0 ug/ml; % of RBC binding without antibody
Protocol: To determine which antibodies compete with ligand binding to Siglec-7, a red blood cell (RBC) solid adhesion assay was carried out in accordance with standard protocols (Kelm et al., Current Biology, 1994). Red blood cells are highly decorated with glycoproteins containing sialic acids: therefore, the ability of an antibody to block RBC binding to immobilized Siglec-7 can be used to determine ligand interference. Briefly, 5 μg/ml Siglec-7-Fc was coated overnight at RT in 96 well Immunolon plates, then washed with PBS, blocked for one hour with binding buffer (PBS containing %0.25 BSA 1 mM CaCl₂), Siglec-7 antibodies (0.5 μg/ml or 1.0 μg/ml) were bound for one hour at RT with gentle rocking. After removal of unbound antibody, red blood cells were added to each well at a concentration of 3.0×10⁶ cells per ml and incubated at RT for one hour. Unbound RBCs were then carefully washed off 3× with PBS, and water was added to each well for hypotonic lysis of bound RBCs. The plate was transferred to −80° C. for 10 minutes, followed by 37° C. for 15 minutes. Bound RBCs were detected by peroxidase activity, followed by 2N sulfuric acid to stop the reaction. Signal was detected at […]. Data was calculated as a percent of RBC binding to plate bound Siglec-7-Fc in the absence of antibody.

[9] = target: human Siglec-7 expressed on human cells (primary monocytes, dendritic cells, macrophages, NK cells, microglia, U937 cells, human cells of humanized mice) (human) (UniProt Q9Y286); assay: FACS, human primary dendritic cells, 10 ug/ml mAb

T1 sequence (Q9Y286 19-357 limits assumed): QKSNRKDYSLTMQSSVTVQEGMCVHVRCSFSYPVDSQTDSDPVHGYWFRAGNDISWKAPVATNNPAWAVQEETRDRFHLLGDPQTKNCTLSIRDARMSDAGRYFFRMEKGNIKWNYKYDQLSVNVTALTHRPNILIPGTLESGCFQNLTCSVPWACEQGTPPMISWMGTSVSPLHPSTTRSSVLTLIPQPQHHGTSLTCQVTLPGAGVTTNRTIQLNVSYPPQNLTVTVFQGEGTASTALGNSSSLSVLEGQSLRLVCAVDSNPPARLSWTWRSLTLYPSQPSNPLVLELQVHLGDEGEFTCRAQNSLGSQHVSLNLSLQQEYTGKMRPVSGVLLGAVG
human Siglec-7 expressed on human cells (primary monocytes, dendritic cells, macrophages, NK cells, microglia, U937 cells, human cells of humanized mice) (human), sequence (Q9Y286 19-467): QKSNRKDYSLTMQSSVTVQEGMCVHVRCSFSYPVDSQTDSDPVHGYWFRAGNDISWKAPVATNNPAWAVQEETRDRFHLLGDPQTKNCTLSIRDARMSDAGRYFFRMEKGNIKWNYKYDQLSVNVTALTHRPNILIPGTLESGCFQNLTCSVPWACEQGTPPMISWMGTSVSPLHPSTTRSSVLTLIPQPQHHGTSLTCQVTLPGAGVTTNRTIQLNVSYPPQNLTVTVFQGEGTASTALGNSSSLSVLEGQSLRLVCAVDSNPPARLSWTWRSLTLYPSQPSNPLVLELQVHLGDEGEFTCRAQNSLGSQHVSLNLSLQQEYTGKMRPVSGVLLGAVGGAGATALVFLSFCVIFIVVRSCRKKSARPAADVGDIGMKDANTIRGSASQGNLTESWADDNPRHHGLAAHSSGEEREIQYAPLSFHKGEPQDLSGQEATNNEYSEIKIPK
T3 sequence (Q9Y286 19-467 T103A limits assumed): as the sequence (Q9Y286 19-467) above, with T85A counted along it
T10 sequence (Q9Y286 19-467 R45A limits assumed): as the sequence (Q9Y286 19-467) above, with R27A counted along it
T11 sequence (Q9Y286 19-467 M30A limits assumed): as the sequence (Q9Y286 19-467) above, with M12A counted along it
T14 sequence (Q9Y286 19-467 Y50A limits assumed): as the sequence (Q9Y286 19-467) above, with Y32A counted along it
T15 sequence (Q9Y286 19-467 V44A limits assumed): as the sequence (Q9Y286 19-467) above, with V26A counted along it
T9 sequence (Q9Y286 19-467 K104A limits assumed): as the sequence (Q9Y286 19-467) above, with K86A counted along it
T12 sequence (Q9Y286 19-467 M185A limits assumed): as the sequence (Q9Y286 19-467) above, with M167A counted along it
T4 sequence (Q9Y286 19-467 F48A limits assumed): as the sequence (Q9Y286 19-467) above, with F30A counted along it
T8 sequence (Q9Y286 19-467 I72A limits assumed): as the sequence (Q9Y286 19-467) above, with I54A counted along it
T5 sequence (Q9Y286 19-467 S47A limits assumed): as the sequence (Q9Y286 19-467) above, with S29A counted along it
T2 sequence (Q9Y286 19-467 W74A limits assumed): as the sequence (Q9Y286 19-467) above, with W56A counted along it
T6 sequence (Q9Y286 19-467 T107A limits assumed): as the sequence (Q9Y286 19-467) above, with T89A counted along it
T7 sequence (Q9Y286 19-467 R124A limits assumed): as the sequence (Q9Y286 19-467) above, with R106A counted along it
T13 sequence (Q9Y286 19-467 N81A limits assumed): as the sequence (Q9Y286 19-467) above, with N63A counted along it

Substance	% Positive [1] [%]	MFI [1]	% Positive [2] [%]	MFI [2]	% Positive [3] [%]	MFI [3]	Percent Siglec-7 Surface Expression, DCs [4] [%]	Percent Siglec-7 Surface Expression, Macrophages [4] [%]	Percent Siglec-7 Surface Expression, Microglia [4] [%]	Percent Siglec-7 Surface Expression, Monocytes [4] [%]	Percent Siglec-7 Surface Expression, NK cells [4] [%]	Percent Siglec-7 Surface Expression, U937 cells [4] [%]	Percent RBC Binding to Siglec-7 [5] [%]	Binding Reactivity (% WT) (W74A)	Binding Reactivity (% WT) (T103A)	Binding Reactivity (% WT) (F48A)	Binding Reactivity (% WT) (S47A)	Binding Reactivity (% WT) (T107A)	Binding Reactivity (% WT) (R124A)	Binding Reactivity (% WT) (I72A)	further results
mIgG2b isotype control antibody	79.5	2060	13.9	128	5	130	100	100	88.8	96.2	101	99.3	102	–	–	–	–	–	–	–	–
6-434 MAb (antibody)	–	–	–	–	–	–	–	–	–	–	–	–	–	74.9	77.5	113	101	66.8	126	64.2	Binding Reactivity (% WT) (K104A): 83.8 % WT; Binding Reactivity (% WT) (R45A): 112 % WT; Binding Reactivity (% WT) (M30A): 84.8 % WT; Binding Reactivity (% WT) (M185A): 69.3 % WT; Binding Reactivity (% WT) (N81A): 112 % WT; Binding Reactivity (% WT) (Y50A): 97.9 % WT; Binding Reactivity (% WT) (V44A): 68 % WT

The next lines start with results.

% Positive [1] [%]	MFI [1]	% Positive [2] [%]	MFI [2]	% Positive [3] [%]	MFI [3]	Percent Siglec-7 Surface Expression, DCs [4] [%]	Percent Siglec-7 Surface Expression, Macrophages [4] [%]	Percent Siglec-7 Surface Expression, Microglia [4] [%]	Percent Siglec-7 Surface Expression, Monocytes [4] [%]	Percent Siglec-7 Surface Expression, NK cells [4] [%]	Percent Siglec-7 Surface Expression, U937 cells [4] [%]	Percent RBC Binding to Siglec-7 [5] [%]	Binding Reactivity (% WT) (W74A)	Binding Reactivity (% WT) (T103A)	Binding Reactivity (% WT) (F48A)	Binding Reactivity (% WT) (S47A)	Binding Reactivity (% WT) (T107A)	Binding Reactivity (% WT) (R124A)	Binding Reactivity (% WT) (I72A)	Substance	further results
21.7	368	10.6	115	2.8	83	101	100	88.7	96.2	99.6	102	107	–	–	–	–	–	–	–	mIgG1 isotype control antibody	–
–	–	–	–	–	–	–	–	–	–	–	–	–	83.7	106	158	118	129	115	101	S7.7 MAb (antibody)	Binding Reactivity (% WT) (K104A): 115 % WT; Binding Reactivity (% WT) (R45A): 126 % WT; Binding Reactivity (% WT) (M30A): 100 % WT; Binding Reactivity (% WT) (M185A): 74.3 % WT; Binding Reactivity (% WT) (N81A): 5.6 % WT; Binding Reactivity (% WT) (Y50A): 142 % WT; Binding Reactivity (% WT) (V44A): 89.3 % WT
–	–	–	–	–	–	96.7	98.7	80.2	99.6	103	98.2	–	–	–	–	–	–	–	–	commercially available anti-Siglec-7 antibody Mab1138 (R&D Systems; Cat. No. MAB 1138)	% Positive [6]: 19.9%; MFI [6]: 175; % Positive [7]: 98.6%; MFI [7]: 4220; Percent RBC Binding to Siglec-7 [8]: 97.1%; % Positive [9]: 73.9%; MFI [9]: 1450
